Data reported in patent US11473061B2, “Systems and methods for growth of intestinal cells in microfluidic devices” (Cedars-Sinai Medical Center, priority 2016, dated 2022).

Key:
[1] = test system: human intestinal epithelial cells derived from IPSCs; experiment: Transepithelial electrical resistance (TEER) in microfluidic chips; assay type: cell-based; settings: 10 ng/ml of IFNgamma, basal administration, over time
Description: (§1) Human intestinal epithelial cells derived from IPSCs were treated with 10 ng/ml of IFNgamma. The basal administration of IFNg leads to a decrease in transepithelial resistance and an increase in the efflux of dextran FITC in human intestinal epithelial cells derived from IPSCs. Basically this means that the intestinal epithelium is more permeable in response to this cytokine.

[2] = test system: human intestinal epithelial cells derived from IPSCs; experiment: Dextran FITC permeability of iPSC-derived intestinal epithelium; assay type: cell-based; settings: for basal accumulation of FITC dextran: after addition to the apical layer; for permeability co-efficient (FITC dextran added to the apical channel): microfluidic chips
Description: as §1

hindgut intestinal cells = experiment: TEER of hindgut intestinal cells grown in transwell; assay type: cell-based, human; settings: for TEER / transepithelial resistance: transwell, compared to control
Source text: FIG. 76. Depiction of exemplary transwell apparatus, including deposit of cells on a membrane and measurement of electrical properties via electrodes spanning both sides of the chamber.
FIG. 79. TEER measurement of hindgut intestinal cells growth in transwell.
FIG. 81. Another depiction of IFNγ responsiveness for cells grown in a transwell system.

iHTNs = experiment: Seahorse mitochondrial stress test in iHTNs; assay type: cell-based, human; settings: low-dose EDC treatment
Description: (§2) The Seahorse XF^e24 Extracellular Flux Analyzer (Seahorse Biosciences) was used to perform mitochondrial stress tests and obtain real-time measurements of oxygen consumption rate (OCR) in cells. iFGEs and iHTNS treated with or without EDCs were seeded in a 24-well Seahorse culture plate at a density of 10,000-15,000 cells/well. For analysis of OCR, cells were reconstituted in Seahorse base medium and were allowed to settle for 1 hour at 37° C. in non-CO2 incubator before measurements. Chemical reagents (Sigma) were used at final concentrations as follows: 1 μM Oligomycin—an ATP synthase inhibitor, 1 μM (FCCP) carbonyl cyanide 4-(trifluoromethoxy)phenylhydrazone—an uncoupling agent, and a mixture of 0.50 μM antimycin A—a cytochrome C reductase inhibitor and 0.5 μM rotenone—a complex I inhibitor. Results were normalized to protein concentration determined by BCA assay (Thermo Scientific).

iFGEs = experiment: Seahorse mitochondrial stress test in iFGEs; assay type: cell-based, human; settings: low-dose EDC treatment
Description: as §2

Caco2 cells = experiment: IFNgamma response of Caco-2 cells on chips; assay type: cell-based, human
[3] = test system: STAT1 and IFNgamma responsive genes; experiment: IFNgamma response of iPSC-derived intestinal cells in small microfluidic device; assay type: cell-based, human; settings: IFNgamma administered to the lower channel
Description: In one embodiment, iPSCs were directed to form HIOs and were subsequently dissociated to a single cell suspension. These cells were then seeded into a small microfluidic device (SMD) which is composed of two chambers separated by a porous flexible membrane. See, FIG. 40.

[4] = human intestinal epithelial cells derived from IPSCs

Molecule: TNFalpha
- transepithelial electrical resistance (TEER) ([1]; n=4): increased TEER over time comparable to controls
- basal accumulation of FITC dextran [2, 4]: comparable
- intestinal permeability ([2]; human intestinal epithelial cells derived from IPSCs, microfluidic cultures): does not elicit any change
- permeability co-efficient (FITC dextran added to the apical channel) [2]: comparable
- intestinal permeability (hindgut intestinal cells; transwell system): does not elicit any change

Molecule: tributyltin [TBT]
- effect on spare respiratory capacity (iHTNs): significant impairment

Molecule: O=C(O)C(F)(F)C(F)(F)C(F)(F)C(F)(F)C(F)(F)C(F)(F)C(F)(F)F [PFOA, perfluorooctanoic acid]
- effect on spare respiratory capacity (iFGEs): did not show any effect
- effect on spare respiratory capacity (iHTNs): did not show any effect

B1: IFNgamma: inflammatory cytokine interferon-gamma (protein, UniProt P01579 24-161, looked up)
Interferon gamma: QDPYVKEAENLKKYFNAGHSDVADNGTLFLGILKNWKEESDRKIMQSQIVSFYFKLFKNFKDDQSIQKSVETIKEDMNVKFFNSNKKKRDDFEKLTNYSVTDLNVQRKAIHELIQVMAELSPAAKTGKRKRSQMLFRG
- transepithelial electrical resistance (TEER) ([1]; n=4): loss
- transepithelial electrical resistance (TEER) ([1]; n=4, listed as IFNg): decrease
- genes associated with intestinal epithelial subtypes (Caco2 cells; Caco2 cells): no corresponding upregulation
- response to IFN-gamma (relative expression of gene markers) (Caco2 cells; Caco-2 epithelial cells grown on chips vs enteroids grown on chips): do not show the same response
- efflux of dextran FITC [2, 4]: increase
- basal accumulation of FITC dextran ([2]; human intestinal epithelial cells derived from IPSCs, listed as IFNγ): basal accumulation
- permeability co-efficient (FITC dextran added to the apical channel) [2]: increase
- TEER / transepithelial resistance (hindgut intestinal cells): decrease
- TEER / transepithelial resistance (hindgut intestinal cells; listed as IFNγ): increase
- IFNgamma responsive genes (IDO1, GBP4 and/or GBP5) [3]: significant upregulation
- phospholipase A2 group 2A and Muc4 expression [3]: upregulated
- phosphorylation of STAT1 [3]: phosphorylation
